Test results published in US20220073608A1 (JIANGSU HUAIYU PHARMACEUTICAL, published 2022).

T1: hSEMA4D ECD-His (His-tagged human SEMA4D protein extracellular domain, Met22-Arg734) (human, UniProt Q92854 22-734)
T1 construct: Expressed in CHO-S cells, purified on Ni column; also called protein immunogen; immunogen A; not shown: His tag of the pCP vector
T1 sequence: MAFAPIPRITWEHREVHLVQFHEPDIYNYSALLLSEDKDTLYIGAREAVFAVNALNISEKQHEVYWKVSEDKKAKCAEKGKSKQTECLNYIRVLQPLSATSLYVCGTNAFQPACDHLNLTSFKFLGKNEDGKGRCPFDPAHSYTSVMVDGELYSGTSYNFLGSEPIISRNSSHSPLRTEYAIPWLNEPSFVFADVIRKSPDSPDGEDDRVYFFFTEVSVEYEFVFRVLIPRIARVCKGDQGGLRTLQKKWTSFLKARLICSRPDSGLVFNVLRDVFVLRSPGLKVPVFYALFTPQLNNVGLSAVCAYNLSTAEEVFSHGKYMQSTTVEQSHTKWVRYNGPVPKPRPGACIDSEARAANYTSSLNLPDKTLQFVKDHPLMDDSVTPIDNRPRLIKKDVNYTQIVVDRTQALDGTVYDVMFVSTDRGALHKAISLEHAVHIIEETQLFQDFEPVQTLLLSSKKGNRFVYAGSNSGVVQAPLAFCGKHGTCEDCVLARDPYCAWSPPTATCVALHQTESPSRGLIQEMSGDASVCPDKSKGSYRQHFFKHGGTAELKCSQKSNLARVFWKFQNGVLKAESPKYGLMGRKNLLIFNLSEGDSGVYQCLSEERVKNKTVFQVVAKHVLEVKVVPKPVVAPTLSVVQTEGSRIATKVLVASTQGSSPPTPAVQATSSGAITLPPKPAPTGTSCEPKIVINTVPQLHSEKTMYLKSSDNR

T2: mouse SEMA4D, full length, on CHO-K1 cells (CHO-K1 mSEMA4D) (mouse, UniProt O09126 24-861)
T2 construct: whole, on cells; also called murine SEMA4D recombinant cells
T2 sequence (looked up): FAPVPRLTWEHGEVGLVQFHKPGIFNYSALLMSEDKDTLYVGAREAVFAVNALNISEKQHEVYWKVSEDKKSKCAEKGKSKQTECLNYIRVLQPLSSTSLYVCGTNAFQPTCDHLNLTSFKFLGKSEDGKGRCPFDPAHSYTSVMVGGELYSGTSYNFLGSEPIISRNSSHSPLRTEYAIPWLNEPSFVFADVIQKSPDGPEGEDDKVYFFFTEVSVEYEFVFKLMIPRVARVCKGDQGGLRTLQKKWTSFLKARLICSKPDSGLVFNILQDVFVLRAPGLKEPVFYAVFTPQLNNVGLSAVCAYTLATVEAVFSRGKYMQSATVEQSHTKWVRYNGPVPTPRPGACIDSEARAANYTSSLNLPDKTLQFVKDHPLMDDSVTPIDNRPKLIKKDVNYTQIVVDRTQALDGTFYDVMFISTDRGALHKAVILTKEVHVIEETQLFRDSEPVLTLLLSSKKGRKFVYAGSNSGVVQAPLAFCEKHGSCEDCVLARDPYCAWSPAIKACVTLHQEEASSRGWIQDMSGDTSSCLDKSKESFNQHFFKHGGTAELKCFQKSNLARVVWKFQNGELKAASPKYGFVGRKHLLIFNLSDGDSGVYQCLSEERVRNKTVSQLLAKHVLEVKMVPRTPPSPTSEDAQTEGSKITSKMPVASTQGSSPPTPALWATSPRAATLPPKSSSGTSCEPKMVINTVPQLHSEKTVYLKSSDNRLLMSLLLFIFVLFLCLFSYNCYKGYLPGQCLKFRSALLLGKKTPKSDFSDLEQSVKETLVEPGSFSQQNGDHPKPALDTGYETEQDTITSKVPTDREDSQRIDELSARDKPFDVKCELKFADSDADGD


What was measured:
[1] = molecular target: T1, hSEMA4D ECD-His (His-tagged human …); assay: ELISA, coated hSEMA4D ECD-His; Ab 6.67 nM
Experimental: First, hSEMA4D ECD-His was diluted with PBS to a final concentration of 1.0 μg/mL, and then was added to a 96-well ELISA plate, 100 μL per well, sealed with plastic film and incubated overnight at 4° C. On the next day, the plate was washed with a plate washing solution, that is, PBS buffer containing 0.05% (v/v) Tween20, for 4 times, and added with blocking solution, that is, PBS buffer containing 0.05% (v/v) Tween20 and 2% (w/w) BSA, blocked at 37° C. for 1 hour. The blocking solution was poured out and the plate was washed 4 times with the plate washing solution. 100 μL of the purified leading antibodies obtained in Examples 1 and 2 was added to each well. After incubation at 37° C. for 1 hour, the plate was washed 4 times with a plate washing solution. 100 μL of horseradish peroxidase (HRP) labeled secondary antibody (purchased from Sigma) was added at a dilution of 1:10000 to each well, and the plate was incubated at 37° C. for 1 hour, and washed 4 times with a plate washing solution. 100 μL TMB substrate was added to each well, and the plate was incubated at room temperature for 5 minutes, and added with 100 μL stop solution (1.0N HCl) to each well. A microplate reader (SpectraMax M5e, purchased from Molecular Device) was used to read the A450 nm value. […] Wherein, the data in the table was the OD450 nm value.

[2] = molecular target: T3, monkey SEMA4D, full length, on CHO-K1 cells (CHO-K1 cSEMA4D) (monkey); assay: FACS, CHO-K1 cSEMA4D cells; Ab 66.7 nM
T3 construct: whole, on cells; also called monkey SEMA4D recombinant cells
Experimental: (§1) After the cells were counted, they were diluted with PBS to 2×10⁶ cells per milliliter. After washing, 100 μL of diluted and purified leading antibodies was added to each well and the plate was incubated for 1 hour on ice. […] Cells were washed 2 times by centrifugation with FACS buffer. The cells were suspended with 200 μL of FACS buffer, FACS (FACS Verse, purchased from BD) was used to detect and analyze the results.

[3] = molecular target: T3, monkey SEMA4D, full length, on CHO-K1 …; assay: FACS, CHO-K1 cSEMA4D cells; Ab 0.107 nM
Experimental: as §1

[4] = molecular target: T2, mouse SEMA4D, full length, on CHO-K1 …; assay: FACS, CHO-K1 mSEMA4D cells; Ab 0.0213 nM
Experimental: as §1

OD450 nm [1]	MFI [2]	MFI [3]	MFI [4]	Binder
1.54	2520	300	30.5	37F11F9 (antibody, V domains shown, Mouse monoclonal antibody purified from hybridoma supernatant on protein A) VH: EVQLQQSGPVLVKPGASVKMSCKASGYTFTDYYMNWVKQSHGKSLEWIGLINPYSGGSTFNQKFKAKATLTVDKSSSSAYMDLNSLTSEDSAVYYCARVGDGYYGVTHGMDYWGQGTSVTVSS VL: DIVMTPSQKFMSTTVGDRVSITCKASQNVGTAVAWYQQKPGQSPTILIYSASNRYTGVPDRFTGSGSGTDFTLTISNMKSEDLADYFCQQYYIYPFTFAAGTKLELK
1.19	2900	237	30.8	37C4F7 (antibody, V domains shown, Mouse monoclonal antibody purified from hybridoma supernatant on protein A) VH: EFQLQQSGPEVVKPGASVKISCKASGYSFTDYNMNWMKQSKGKSLEWIGVINPNYGTTTYNQNFKGKATLTVDQSSSTAYMQLNSLTSEDSAVYYCARDMYYVYAYYTMDYWGQGTSVTVSS VL: DVVMTQTPLSLPVSLGDQASISCRSSQSLVHSNGHTYLHWYLQRPGQSPTLLIYKVSNRFSGVPDRFSGSGSGTDFTLKISRVEAEDLGVYFCSQGTHVPWTFGGGTKLEIK
1.46	2890	210	30.1	38H2E3 (antibody, V domains shown, Mouse monoclonal antibody purified from hybridoma supernatant on protein A) VH: EFQLQQSGPEVVKPGASVKISCKASGYSFTDYNMNWMKQSKGKSLEWIGVISPDYGTTTYNQNFKDKATLTVDQSSSTAYMQLNSLTSEDSAVYYCAKDMYYVYAYYTMDYWGHGTSVTVSS VL: DVVMTQTPLSLPVSLGDQASISCRSSQSLVHSNGHTYLHWYLQRPGQSPTLLIYKVSNRFSGVPDRVSGSGSGTDFTLKISRVEAEDLGVYFCSQGTHVPRTFGGGTKLEIK
2.32	5780	1010	29.5	32C8F10 (antibody, V domains shown, Mouse monoclonal antibody purified from hybridoma supernatant on protein A) VH: EVQLQQSGAELVRPGASVKLSCTASGFNIKDEYIHWVKQRPEQGLEWIGWIDPANGHTEYASRFQAKATITADTSSNTAYLQLSSLTSEDTAVYYCTTGDYDGFAYWGQGTLVTVST VL: QIVLTQSPAIMSASPGEKVTISCSARSSVSYMYWYQQKPGSSPKPWIYRTSNLASGVPARFSGSGSGTSYSLTISSMEAEDAATYYCQHYHTYPYTFGGGTKLEIK
1.59	4600	1310	29.6	31G10C5 (antibody, V domains shown, Mouse monoclonal antibody purified from hybridoma supernatant on protein A) VH: EVQLQQSGAELVRPGASVKLSCTASGFNIKDDYIHWVKQRPEQGLEWIGWIDPANGHIEYASNFQAKATITADTSSNTAYLQLSSLTSEDTAVYYCTTGDYDGFTYWGQGTLVTVST VL: QIVLTQSPAIMSASPGEKVTISCSARSSVSYMYWYQQKPGSSPKPWIYRTSNLASGVPARFSGSGSGTSYSLTISSMEAEDAATYYCQHYHTYPYTFGGGTKLEIK
1.74	4370	1210	30.8	31C11G2 (antibody, V domains shown, Mouse monoclonal antibody purified from hybridoma supernatant on protein A) VH: EVQLQQSGAELVRPGASVKLSCTASGFNIKDEYIHWVKQRPEQGLEWIGWIDPANGHTEYASRFQAKATITADTSSNTAYLQLSSLTSEDTAVYYCTTGDYDGFVYWGQGTLVTVST VL: QIVLTQSPAIMSASPGEKVTIFCSARSSVSYMYWYQQKPGSSPKPWIYRTSNLASGVPARFSGSGSGTSYSLTISSMEAEDAATYYCQHYHTYPYTFGGGTKLEIK
2.07	2670	793	31.6	42B7G2 (antibody, V domains shown, Mouse monoclonal antibody purified from hybridoma supernatant on protein A) VH: QVQLQQSGAELARPGASVKLSCKASGYTFTDYGISWVKQRTGQGLEWIGEIYLRNDNSYYNEKFKGKATLTADKSSNTAYMELRSLTSEDSAVYFCARWGDHGNNYEDAMDYWGQGTSVTVSS VL: DIVLTQSPASLAMSLGKRATISCRASESVSIIGSNLIHWYQQKPGQPPKLLIYHASNLETGVPARFSGSGSRTDFTLTIDPVEEDDVAIYYCLQSRKVPYTFGGGTKLEIK
